Test results reported in patent US20130039923A1 (Novo Nordisk, published 2013).
Numbering of substitutions follows the chain as printed. Read-outs that look alike come from different tables or passages of the source. Blank lines part the entries; values can stand above or below the binder they belong to.

Key:
Experiment in all cases: Ala-scan peptide array of hIL20 74-96 on cellulose; fluorescein-labelled antibody; fluorescence as OD
[1] = target: T1, Peptide no. 41 (Figure 8A)
T1 construct: Ala-scan peptide on the array; also called Peptide no; Q75A
T1 peptide: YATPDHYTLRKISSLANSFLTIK
Method: (§1) The screenings were done using fluorescence labelled antibodies. The labelling was done by gel-filtering the antibody stock against 1% NaHCO3, using NAP5 column (GE Healthcare according the manual from manufacturer. This was followed by adding 25 mole equivalents of 5(6)-carboxyfluorescein N-hydroxysuccinimide ester (Sigma, C1609) dissolved in DMSO. The coupling was allowed to continue for 2 hours followed by a gelfiltration against TRIS washing buffer (50 mM TRIS, pH=7.4, 0.15M NaCl, 0.1 M ArgHCl, 0.05% Tween 20) in order to removed uncoupled fluorescein.
(§2) Screening of arrays were done by adding 10 μl of antibody to 30 ml incubation buffer (0.5% BSA, 50 mM TRIS, pH=7.4, 0.15M NaCl, 0.1 M ArgHCl, 0.05% Tween 20). The sheets were incubated for 1-2 hours, followed by washing five times with washing buffer. […] The fluorescence intensity were measured and transformed into digits that were exported to Prism 5 (Graph Pad Software, USA) for further analysis.

[2] = target: T2, Peptide no. 42 (Figure 8A)
T2 construct: Ala-scan peptide on the array; also called Peptide no; T76A
T2 peptide: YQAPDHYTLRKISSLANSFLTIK
Method: as §1, §2

[3] = target: T3, Peptide no. 43 (Figure 8A)
T3 construct: Ala-scan peptide on the array; also called Peptide no; P77A
T3 peptide: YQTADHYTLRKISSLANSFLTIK
Method: as §1, §2

[4] = target: T4, Peptide no. 44 (Figure 8A)
T4 construct: Ala-scan peptide on the array; also called Peptide no; D78A
T4 peptide: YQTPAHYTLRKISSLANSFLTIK
Method: as §1, §2

[5] = target: T5, Peptide no. 46 (Figure 8A)
T5 construct: Ala-scan peptide on the array; also called Peptide no; Y80A
T5 peptide: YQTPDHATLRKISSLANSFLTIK
Method: as §1, §2

[6] = target: T6, Peptide no. 47 (Figure 8A)
T6 construct: Ala-scan peptide on the array; also called Peptide no; T81A
T6 peptide: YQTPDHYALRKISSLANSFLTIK
Method: as §1, §2

[7] = target: T7, Peptide no. 48 (Figure 8A)
T7 construct: Ala-scan peptide on the array; also called Peptide no; L82A
T7 peptide: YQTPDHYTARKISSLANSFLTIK
Method: as §1, §2

[8] = target: T8, Peptide no. 50 (Figure 8A)
T8 construct: Ala-scan peptide on the array; also called Peptide no; K84A
T8 peptide: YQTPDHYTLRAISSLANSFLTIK
Method: as §1, §2

[9] = target: T9, Peptide no. 51 (Figure 8A)
T9 construct: Ala-scan peptide on the array; also called Peptide no; I85A
T9 peptide: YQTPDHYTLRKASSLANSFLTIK
Method: as §1, §2

[10] = target: T10, Peptide no. 52 (Figure 8A)
T10 construct: Ala-scan peptide on the array; also called Peptide no; S86A
T10 peptide: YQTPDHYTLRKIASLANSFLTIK
Method: as §1, §2

[11] = target: T11, Peptide no. 53 (Figure 8A)
T11 construct: Ala-scan peptide on the array; also called Peptide no; S87A
T11 peptide: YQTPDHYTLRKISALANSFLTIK
Method: as §1, §2

[12] = target: T12, Peptide no. 59 (Figure 8A)
T12 construct: Ala-scan peptide on the array; also called Peptide no; T94A
T12 peptide: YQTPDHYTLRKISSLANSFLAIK
Method: as §1, §2

[13] = target: T13, Peptide no. 60 (Figure 8A)
T13 construct: Ala-scan peptide on the array; also called Peptide no; I95A
T13 peptide: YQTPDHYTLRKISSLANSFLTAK
Method: as §1, §2

[14] = target: T14, Peptide no. 61 (Figure 8A)
T14 construct: Ala-scan peptide on the array; also called Peptide no; K96A
T14 peptide: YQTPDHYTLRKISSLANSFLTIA
Method: as §1, §2

[15] = target: T2, Peptide no. 42 (Figure 8A)
Method: as §1, §2

[16] = target: T3, Peptide no. 43 (Figure 8A)
Method: as §1, §2

[17] = target: T7, Peptide no. 48 (Figure 8A)
Method: as §1, §2

[18] = target: T15, Peptide no. 49 (Figure 8A)
T15 construct: Ala-scan peptide on the array; also called Peptide no; R83A
T15 peptide: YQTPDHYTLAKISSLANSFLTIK
Method: as §1, §2

[19] = target: T8, Peptide no. 50 (Figure 8A)
Method: as §1, §2

[20] = target: T10, Peptide no. 52 (Figure 8A)
Method: as §1, §2

[21] = target: T11, Peptide no. 53 (Figure 8A)
Method: as §1, §2

[22] = target: T16, Peptide no. 56 (Figure 8A)
T16 construct: Ala-scan peptide on the array; also called Peptide no; S91A
T16 peptide: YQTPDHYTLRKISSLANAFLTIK
Method: as §1, §2

[23] = target: T12, Peptide no. 59 (Figure 8A)
Method: as §1, §2

binding result [1]: binds
binding result [2]: binds
binding result [3]: binds
binding result [4]: binds
binding result [5]: binds
binding result [6]: binds
binding result [7]: binds
binding result [8]: binds
binding result [9]: binds
binding result [10]: binds
binding result [11]: binds
binding result [12]: binds
binding result [13]: binds
binding result [14]: binds
B1: human anti-hIL20 monoclonal antibody 15D2 (antibody, V domains shown)
VH: QVQLVQSGAEVKRPGASVKVSCKASGYTFTNDIIHWVRQAPGQRLEWMGWINAGYGNTQYSQNFQDRVSITRDTSASTAYMELISLRSEDTAVYYCAREPLWFGESSPHDYYGMDVWGQGTTVTVSS
VL: AIQLTQSPSSLSASVGDRVTITCRASQGISSALAWYQQKPGKAPKLLIYDASSLESGVPSRFSGSGSGTDFTLTISSLQPEDFATYYCQQFNSYPLTFGGGTKVEIKR
notes: also called 15D2-wt; 15D2 wild-type

binding result [15]: binds
binding result [16]: binds
binding result [17]: binds
binding result [18]: binds
binding result [19]: binds
binding result [20]: binds
binding result [21]: binds
binding result [22]: binds
binding result [23]: binds
B2: human anti-hIL20 monoclonal antibody 5B7 (antibody, human IgG4, V domains shown)
VH: B1 VH with T30S, N31S, D32H, I34M, Q59K, S69T, S106L
VL: B1 VL
notes: described as human IgG4; also called 5B7-wt
